Assay results published in patent publication US20170210809A1 (DYAX, published 2017).
Each block holds one binder with its values, some of them ahead of it.

Assays:
[1] = target: T1, ErbB3 (HER3) on tumor cells (human, UniProt P21860 20-1342); assay: FACS on MCF7 cells (n = 1), apparent Kd
T1 construct: whole, on cells; Endogenous receptor on human tumor cell lines

[2] = target: T1, ErbB3 (HER3) on tumor cells; assay: FACS on ADRr cells (n = 3), apparent Kd
Procedure: (§1) 1×10⁵ MCF7 cells and 1×10⁵ ADRr cells are incubated at room temperature for 2 hours with the BBA at 2 uM, followed by 12 subsequent 3-fold dilutions. Then using goat anti-HSA-Alexa647 conjugated antibody as the detection antibody, cells are incubated on ice for 40 minutes. Cell binding dissociation constants (measures of binding affinities) of the BBAs on MCF7 and ADRr cells are assessed by FACS and apparent dissociation constants are determined for each BBA. The following results were obtained (also see FIGS. 12a and 12b): […]

[3] = target: T1, ErbB3 (HER3) on tumor cells; assay: cell-based or functional assay
[4] = target: IGF-1R and ErbB3 together on tumor cells (MCF7, ADRr, BXPC3) (human) (UniProt P08069); assay: FACS on MCF7 cells (n = 1), apparent Kd
Chain of IGF-1R and ErbB3 together on tumor cells (MCF7, ADRr, BXPC3) (human) (P08069 31-1367, chain 1 of 2): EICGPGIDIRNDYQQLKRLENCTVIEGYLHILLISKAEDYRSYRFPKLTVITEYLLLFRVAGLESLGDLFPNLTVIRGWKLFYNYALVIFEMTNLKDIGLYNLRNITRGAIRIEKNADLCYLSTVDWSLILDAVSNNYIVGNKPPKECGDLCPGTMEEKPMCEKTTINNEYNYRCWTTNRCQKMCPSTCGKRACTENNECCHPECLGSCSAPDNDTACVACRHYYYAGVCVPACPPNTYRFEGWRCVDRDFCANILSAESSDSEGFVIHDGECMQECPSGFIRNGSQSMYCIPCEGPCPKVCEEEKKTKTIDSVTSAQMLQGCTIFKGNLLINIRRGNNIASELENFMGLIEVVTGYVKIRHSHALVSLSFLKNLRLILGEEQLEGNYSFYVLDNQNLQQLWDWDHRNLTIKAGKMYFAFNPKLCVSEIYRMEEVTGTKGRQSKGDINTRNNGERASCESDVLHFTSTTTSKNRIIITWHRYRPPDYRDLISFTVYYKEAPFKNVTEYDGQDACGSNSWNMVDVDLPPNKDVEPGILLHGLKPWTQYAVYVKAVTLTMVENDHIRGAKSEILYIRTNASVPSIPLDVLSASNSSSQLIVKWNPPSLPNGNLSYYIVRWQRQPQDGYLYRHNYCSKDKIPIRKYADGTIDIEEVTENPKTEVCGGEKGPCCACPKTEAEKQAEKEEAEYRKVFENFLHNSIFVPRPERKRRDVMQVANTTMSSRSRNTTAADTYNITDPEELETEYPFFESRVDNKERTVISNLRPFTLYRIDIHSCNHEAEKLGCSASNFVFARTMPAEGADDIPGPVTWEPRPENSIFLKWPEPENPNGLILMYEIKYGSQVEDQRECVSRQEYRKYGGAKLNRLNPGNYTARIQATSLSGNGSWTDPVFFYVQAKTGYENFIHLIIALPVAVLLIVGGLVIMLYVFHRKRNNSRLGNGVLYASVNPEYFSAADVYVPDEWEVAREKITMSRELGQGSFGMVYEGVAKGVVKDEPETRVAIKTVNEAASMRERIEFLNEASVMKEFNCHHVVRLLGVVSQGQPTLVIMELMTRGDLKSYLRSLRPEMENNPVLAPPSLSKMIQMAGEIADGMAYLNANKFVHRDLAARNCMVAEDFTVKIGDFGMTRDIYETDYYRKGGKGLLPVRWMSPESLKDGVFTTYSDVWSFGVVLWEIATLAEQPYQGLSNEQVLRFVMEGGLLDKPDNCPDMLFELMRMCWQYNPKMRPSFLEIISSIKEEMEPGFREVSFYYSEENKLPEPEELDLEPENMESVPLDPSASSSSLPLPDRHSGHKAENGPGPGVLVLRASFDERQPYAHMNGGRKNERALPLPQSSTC
Chain of IGF-1R and ErbB3 together on tumor cells (MCF7, ADRr, BXPC3) (human) (P21860 20-1342, chain 2 of 2, further chain): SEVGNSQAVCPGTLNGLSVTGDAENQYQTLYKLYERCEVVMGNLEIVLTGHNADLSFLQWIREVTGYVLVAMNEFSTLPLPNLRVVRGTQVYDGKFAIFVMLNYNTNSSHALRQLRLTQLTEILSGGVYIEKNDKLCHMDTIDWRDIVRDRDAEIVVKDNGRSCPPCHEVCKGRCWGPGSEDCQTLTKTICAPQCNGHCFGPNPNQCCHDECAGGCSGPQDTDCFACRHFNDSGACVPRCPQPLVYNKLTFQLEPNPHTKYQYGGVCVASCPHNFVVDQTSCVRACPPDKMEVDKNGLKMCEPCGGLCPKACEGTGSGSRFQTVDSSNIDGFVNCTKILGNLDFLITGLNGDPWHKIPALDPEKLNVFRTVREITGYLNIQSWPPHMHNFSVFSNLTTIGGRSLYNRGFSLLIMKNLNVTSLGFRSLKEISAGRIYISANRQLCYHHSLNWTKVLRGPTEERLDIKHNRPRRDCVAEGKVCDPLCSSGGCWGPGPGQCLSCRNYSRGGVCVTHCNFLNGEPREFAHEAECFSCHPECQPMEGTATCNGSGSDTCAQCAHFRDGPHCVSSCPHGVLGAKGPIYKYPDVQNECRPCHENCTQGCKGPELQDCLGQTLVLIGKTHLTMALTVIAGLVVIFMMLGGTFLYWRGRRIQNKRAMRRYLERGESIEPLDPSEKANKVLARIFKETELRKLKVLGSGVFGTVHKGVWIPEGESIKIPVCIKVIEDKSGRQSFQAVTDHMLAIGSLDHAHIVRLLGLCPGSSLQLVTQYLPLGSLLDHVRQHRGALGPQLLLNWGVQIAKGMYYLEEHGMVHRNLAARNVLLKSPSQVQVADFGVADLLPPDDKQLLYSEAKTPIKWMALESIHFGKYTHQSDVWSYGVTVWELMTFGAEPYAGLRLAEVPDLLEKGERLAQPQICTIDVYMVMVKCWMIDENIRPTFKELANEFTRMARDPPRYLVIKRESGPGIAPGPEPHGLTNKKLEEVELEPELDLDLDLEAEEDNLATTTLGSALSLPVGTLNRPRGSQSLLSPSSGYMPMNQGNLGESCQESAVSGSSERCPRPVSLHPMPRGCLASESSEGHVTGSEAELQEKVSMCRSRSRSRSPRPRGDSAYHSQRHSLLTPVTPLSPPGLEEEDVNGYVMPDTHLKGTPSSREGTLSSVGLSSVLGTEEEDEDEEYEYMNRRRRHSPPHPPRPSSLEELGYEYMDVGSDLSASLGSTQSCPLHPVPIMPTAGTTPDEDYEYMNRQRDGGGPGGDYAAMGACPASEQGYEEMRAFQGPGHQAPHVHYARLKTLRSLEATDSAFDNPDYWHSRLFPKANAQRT

[5] = target: IGF-1R and ErbB3 together on tumor cells (MCF7, ADRr, BXPC3) (human) (UniProt P08069); assay: FACS on ADRr cells (n = 3), apparent Kd
[6] = target: T2, IGF-1R (insulin-like growth factor 1 receptor) on tumor cells (human, UniProt P08069 31-1367); assay: FACS on ADRr and MCF7 cells
T2 construct: whole, on cells; Endogenous receptor on human tumor cell lines
T2 sequence (P08069 31-1367): as the sequence (P08069 31-1367, chain 1 of 2) above

[7] = target: T1, ErbB3 (HER3) on tumor cells; assay: FACS on ADRr and MCF7 cells
[8] = target: T1, ErbB3 (HER3) on tumor cells; assay: FACS binding to ADRr cells, y axis 'GaH-A647 Mean', x axis Ab [nM] (log)
[9] = target: T2, IGF-1R (insulin-like growth factor 1 …); assay: cell-based or functional assay
[10] = target: T2, IGF-1R (insulin-like growth factor 1 …); assay: FACS on MCF7 cells (n = 1), apparent Kd
[11] = target: T2, IGF-1R (insulin-like growth factor 1 …); assay: FACS on ADRr cells (n = 3), apparent Kd
Procedure: as §1

T1 sequence (P21860 20-1342): as the sequence (P21860 20-1342, chain 2 of 2, further chain) above

B3: ILE-10 (bispecific antibody, human IgG2, kappa)
heavy: EVQLLESGGGLVQPGGSLRLSCAASGFTFSVYPMHWVRQAPGKGLEWVSSISSSGGATRYADSVKGRFTISRDNSKNTLYLQMNSLRAEDTAVYYCAKDFYDILTGNAFDIWGQGTMVTVSSASTKGPSVFPLAPCSRSTSESTAALGCLVKDYFPEPVTVSWNSGALTSGVHTFPAVLQSSGLYSLSSVVTVPSSNFGTQTYTCNVDHKPSNTKVDKTVERKCCVECPPCPAPPVAGPSVFLFPPKPKDTLMISRTPEVTCVVVDVSHEDPEVQFNWYVDGVEVHNAKTKPREEQFNSTFRVVSVLTVVHQDWLNGKEYKCKVSNKGLPAPIEKTISKTKGQPREPQVYTLPPSREEMTKNQVSLTCLVKGFYPSDIAVEWESNGQPENNYKTTPPMLDSDGSFFLYSKLTVDKSRWQQGNVFSCSVMHEALHNHYTQKSLSLSPGKGGGGSGGGGSGGGGSLQEVQLLESGGGLVQPGGSLRLSCAASGFTFSAYNMRWVRQAPGKGLEWVSVIYPSGGATRYADSVKGRFTISRDNSKNTLYLQMNSLRAEDTAVYYCARGYYYYGMDVWGQGTLVTVSSASTGGGGSGGGGSGGGGSQSVLTQPPSASGTPGQRVTISCSGSDSNIGRNYIYWYQQFPGTAPKLLIYRNNQRPSGVPDRISGSKSGTSASLAISGLRSEDEAEYHCGTWDDSLSGPVFGGGTKLTVLS
light: DIQMTQSPSSFSASTGDRVTITCRASQGISSYLAWYQQKPGKAPKLLIYAASTLQSGVPSRFSGSGSGTDFTLTISSLQPEDSATYYCQQYFTFPLTFGGGTKVEIKRTVAAPSVFIFPPSDEQLKSGTASVVCLLNNFYPREAKVQWKVDNALQSGNSQESVTEQDSKDSTYSLSSTLTLSKADYEKHKVYACEVTHQGLSSPVTKSFNRGEC
notes: IgG-linked BBA, designed to be functionally dimeric; the numbers of ILE-10 stand on the line that begins with ILE-11; also called Bs14F3 huIgG2
- Kd [4]: 4.5 nM
- Kd [5]: 7.1 nM
- binding result [6]: binds
- binding result [7]: binds

B5: IgG version of SEQ ID NO: 44 (antibody, V domains shown)
VH: EVQLLESGGGLVQPGGSLRLSCAASGFTFSVYDMYWVRQAPGKGLEWVSYIYSSGGDTDYADSVKGRFTISRDNSKNTLYLQMNSLRAEDTATYYCARASTNSIYDAMDVWGQGTTVTVSS
VL: DIQMTQSPSSVSASVGDRVTITCRASQDITNWLAWYQQKPGKAPTLLIYDASTLQSGVPSRFSGSGSGTDFTLTISSLQPEDFATYFCQQANGFPLTFGGGTKVEIK
- Kd [1]: 0.04 nM
- EC50 (read off the curve) [8]: ~0.3 nM
- Kd [2]: 0.4 nM

B6: AB5-7 IgG2 (antibody, V domains shown)
VH: EVQLLESGGGLVQPGGSLRLSCAASGFTFSVYPMHWVRQAPGKGLEWVSSISSSGGATRYADSVKGRFTISRDNSKNTLYLQMNSLRAEDTAVYYCAKDFYDILTGNAFDIWGQGTMVTVSS
VL: DIQMTQSPSSFSASTGDRVTITCRASQGISSYLAWYQQKPGKAPKLLIYAASTLQSGVPSRFSGSGSGTDFTLTISSLQPEDSATYYCQQYFTFPLTFGGGTKVEIKR
- Ki, inhibition of IGF2-induced pAKT formation (ELISA, MCF7 cells) [9]: 0.7 nM

B7: IgG version of SEQ ID NO: 1 (antibody, V domains shown)
VH: EVQLLESGGGLVQPGGSLRLSCAASGFTFSVYPMHWVRQAPGKGLEWVSSISSSGGATRYADSVKGRFTISRDNSKNTLYLQMNSLRAEDTAVYYCAKDFYDILTGNAFDIWGQGTMVTVSS
VL: DIQMTQSPSSFSASTGDRVTITCRASQGISSYLAWYQQKPGKAPKLLIYAASTLQSGVPSRFSGSGSGTDFTLTISSLQPEDSATYYCQQYFTFPLTFGGGTKVEIKR
- Kd [10]: 5.6 nM
- Kd [11]: 5.1 nM

The remaining lines, values ahead:

- Kd [1]: 0.9 nM
- Kd [2]: 1.2 nM
B1: IgG version of SEQ ID NO: 33 (antibody, V domains shown)
VH: EVQLLESGGGLVQPGGSLRLSCAASGFTFSAYNMRWVRQAPGKGLEWVSVIYPSGGATRYADSVKGRFTISRDNSKNTLYLQMNSLRAEDTAVYYCARGYYYYGMDVWGQGTLVTVSS
VL: QSVLTQPPSASGTPGQRVTISCSGSDSNIGRNYIYWYQQFPGTAPKLLIYRNNQRPSGVPDRISGSKSGTSASLAISGLRSEDEAEYHCGTWDDSLSGPVFGGGTKLTVLG

- Ki, inhibition of BTC-induced pErbB3 formation (ELISA, ADRr cells) [3]: 1.1 nM
- Ki, inhibition of HRG-induced pErbB3 formation (ELISA, ADRr cells) [3]: 0.1 nM
B2: Ab #6 (MM-121) (antibody, INN chains, looked up, V domains shown)
VH: EVQLLESGGGLVQPGGSLRLSCAASGFTFSHYVMAWVRQAPGKGLEWVSSISSSGGWTLYADSVKGRFTISRDNSKNTLYLQMNSLRAEDTAVYYCTRGLKMATIFDYWGQGTLVTVSS
VL: QSALTQPASVSGSPGQSITISCTGTSSDVGSYNVVSWYQQHPGKAPKLIIYEVSQRPSGVSNRFSGSKSGNTASLTISGLQTEDEADYYCCSYAGSSIFVIFGGGTKVTVL

- Kd [4]: 0.6 nM
- Kd [5]: 0.3 nM
- binding result [6]: binds
- binding result [7]: binds
B4: ILE-12 (bispecific antibody, human IgG2, kappa)
heavy: EVQLLESGGGLVQPGGSLRLSCAASGFTFSVYPMHWVRQAPGKGLEWVSSISSSGGATRYADSVKGRFTISRDNSKNTLYLQMNSLRAEDTAVYYCAKDFYDILTGNAFDIWGQGTMVTVSSASTKGPSVFPLAPCSRSTSESTAALGCLVKDYFPEPVTVSWNSGALTSGVHTFPAVLQSSGLYSLSSVVTVPSSNFGTQTYTCNVDHKPSNTKVDKTVERKCCVECPPCPAPPVAGPSVFLFPPKPKDTLMISRTPEVTCVVVDVSHEDPEVQFNWYVDGVEVHNAKTKPREEQFNSTFRVVSVLTVVHQDWLNGKEYKCKVSNKGLPAPIEKTISKTKGQPREPQVYTLPPSREEMTKNQVSLTCLVKGFYPSDIAVEWESNGQPENNYKTTPPMLDSDGSFFLYSKLTVDKSRWQQGNVFSCSVMHEALHNHYTQKSLSLSPGKGGGGSGGGGSGGGGSLQEVQLLESGGGLVQPGGSLRLSCAASGFTFSVYDMYWVRQAPGKGLEWVSYIYSSGGDTDYADSVKGRFTISRDNSKNTLYLQMNSLRAEDTATYYCARASTNSIYDAMDVWGQGTTVTVSSASTGGGGSGGGGSGGGGSDIQMTQSPSSVSASVGDRVTITCRASQDITNWLAWYQQKPGKAPTLLIYDASTLQSGVPSRFSGSGSGTDFTLTISSLQPEDFATYFCQQANGFPLTFGGGTKVEIK
light: DIQMTQSPSSFSASTGDRVTITCRASQGISSYLAWYQQKPGKAPKLLIYAASTLQSGVPSRFSGSGSGTDFTLTISSLQPEDSATYYCQQYFTFPLTFGGGTKVEIKRTVAAPSVFIFPPSDEQLKSGTASVVCLLNNFYPREAKVQWKVDNALQSGNSQESVTEQDSKDSTYSLSSTLTLSKADYEKHKVYACEVTHQGLSSPVTKSFNRGEC
notes: IgG-linked BBA, designed to be functionally dimeric; the numbers of ILE-12 stand on the line that begins with ILE-13; also called Bs15F3 huIgG2
